This is an account of results in publication PMC12812394.

The target of the experiment is Pi65-nLUC (rice (Oryza sativa ssp. japonica cv. GY129)). Put plainly: split reporter (BiFC, NanoBiT); NanoLuc luciferase complementation (nLUC/cLUC fusions, 35S promoter) in co-infiltrated Nicotiana benthamiana leaves, 48-72 h at 22 °C; whole-leaf luminescence with furimazine, 1-min exposure.

B1: OsAPx4-cLUC (enzyme)
chain: MAAPVVDAEYLRQVDRARRHLRALISSKGCAPIMLRLAWHDAGTYDVNTKTGGANGSIRYEEEYTHGSNAGLKIAIDLLEPIKAKSPKITYADLYQLAGVVAVEVTGGPTVEFIPGRRDSSVCPREGRLPDAKKGALHLRDIFYRMGLSDKDIVALSGGHTLGRAHPERSGFEGAWTQEPLKFDNSYFLELLKGESEGLLKLPTDKALLEDPSFRRYVDLYARDEDTFFKDYAESHKKLSELGFTPRSSGPASTKSDLSTGAVLAQSAVGVAVAAAVVIVSYLYEASKKSK
With B1, the luminescence, fold over the negative controls was determined as 12.3 fold.
